Laboratory results as given in patent EP2769989A1.

Target: AC133-positive and CD3-positive cells (target of the printed Kd not stated)
Assay: flow cytometry on cells, MFI against antibody concentration, detected with anti-c-Myc mAb and PE anti-mouse F(ab')2; target cell line for this Kd not stated

Kd: 6.4 nM
B1: AC133xCD3-diabody (bispecific single-chain antibody, VHAC133-G4S Linker-VLCD3-(G4S)3 Linker-VHCD3-G4S Linker-VLAC133) (bispecific antibody)
chain: QVQLQQSGAELVRPGASVKLSCKASGYTFSDFEMHWVKQTPVHGLEWIGDIDPGTGDTAYNLKFKGKATLTTDKSSSTAYMELRSLTSEDSAVYYCTLGAFVYWGQGTLVTVSGGGGSDIQMTQSPSSLSASVGDRVTITCRASQDIRNYLNWYQQKPGKAPKLLIYYTSRLESGVPSRFSGSGSGTDYTLTISSLQPEDFATYYCQQGNTLPWTFGQGTKVEIKGGGGSGGGGSGGGGSEVQLVESGGGLVQPGGSLRLSCAASGYSFTGYTMNWVRQAPGKGLEWVALINPYKGVSTYNQKFKDRFTISVDKSKNTAYLQMNSLRAEDTAVYYCARSGYYGDSDWYFDVWGQGTLVTVSSGGGGSDVVVTQTPLSLPVSFGDQVSISCRSSQSLANSYGNTYLSWYLHKPGQSPQLLIYGISNRFSGVPDRFSGSGSGTDFTLKISTIKPEDLGMYYCLQGTHQPYTFGGGTKLEIKRADAAA
